tested on: MS2 coat protein; experiment: apparent KD of MS2 coat protein; higher = weaker reporter binding; details: Eterna round: R107; input ligand: none
How it was run: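 On-chip transcription from Illumina sequencing clusters produced the designed RNA switches. These were titrated with SNAP-549-labelled MS2 coat protein (twofold steps, 0.7 or 1.5 nM to 3 µM) in 100 mM Tris-HCl pH 7.5, 80 mM KCl, 4 mM MgCl2, with or without constant ligand. The apparent KD given is the per-design median of normalised cluster binding-curve fits.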

Row | Sequence | apparent KD of MS2 coat protein [nM]
1 | UCGCUCUGGGUGAAUUCCGGAGAUGUGGAAGGAGCGGACGAAAGUCCAGGUAGGUCGCCAUCGGACAUGAGGAUCACCCAUGUAC [Same State - Arginine A (Freestyle 22)] | 122
2 | UUGGAUAUGCGAAGGAGCGGGAAAUAUAUAUAUAUAAUCCUAACAUGAGGAUCACCCAUGUCCCAGGUAGGUCGCGCAUAUUUGG [12.H] | 51.7
3 | UUACAUGAGGAUCACCCAUGUCAUACAGAAGGAGCGUCACAUAAGACAGGUAGGUCGCUGUUAUAUCAUACUAUUAUAUCCUCUA [JR_Nu_ExcArginiA_Sub028] | 40.4
4 | ACAAGAGGUGGAAGGAGCGGGAGACAUGAGGAUCACCCAUGUGAAGUUUCGAGAGGAUCAUCCCAGGUAGGUCGCCAUGUCGAAA [ojjomullin] | 41.7
5 | AACAUGAGGGCGGCCGCCACUCCAUGAACAUGAGGAUCACCCAUGUUGAGGAUCACCCAUGUUGUGAGGACCGGGCCACAUGAGG [Exclusion Tryptophan B 3] | 38
6 | GCGAUGGAGCGAAGGAGCGGCUGUGACUACAUGAGGAUCACCCAUGUACGAUCGUAAGGUAGCCAGGUAGGUCGCGCUCCAUCGC [SSAB NP+V+V2 #17] | 29.3
7 | UGGUGUAGGGUAAAUAGGCUGAGUACAGAAGGAGCGCGAAUAAACGCAGGUAGGUCGCUGGACACAUGAGGAUCACCCAUGUUGA [Same State Arginine A GF 29] | 20.5
8 | AAGUGGCACGGAAGGAGCGAGUUUACCUAGAUAACAUGAGGAUCACCCAUGUAUAAUGGGACUCAGGUAGGUCGCCGUUGUCACU [#29 Same State - Arginine B] | 34.8
9 | AUACAUGAGGAUCACCCAUGUCAUACAGAAGGAGCGUCACAUAAGACAGGUAGGUCGCUGAUAAAUGGAUUAUAGUUUAUGAUUA [JR_SSArginiA_Sub016] | 18.6
10 | AGUCUUAUAGGAAGGAGCGCAUACUUCACAUGAGGAUCACCCAUGUCAAGACGUGAGUCAGUGCAGGUAGGUCGCCUAACUAAGA [Same State - Arginine B (Freestyle 13)] | 29.2
11 | ACGCCCAGGUAGGCUUAGUGGGAUAUGGAAGGAGCGCCGAUGCAGGCAGGUAGGUCGCCAUAGAACAUGAGGAUCACCCAUGUAA [#05 Same State - Arginine A] | 32.8
12 | GAACAUAAGGAUAGUAUAAUAACUACAGAAGGAGCGUCAGGAAGGACAGGUAGGUCGCUGGAAGACAUGAGGAUCACCCAUGUUU [#03 Same State - Arginine A] | 21.4
13 | AUCCACAGCCGAAGGAGCGCUAUAGGAUGACAUGAGGAUCACCCAUGUGUGUGAUGUGGAUAGCAGGUAGGUCGCGGAGUGGAUU [Exclusion - Arginine B (Freestyle 10)] | 29.5
14 | AUAUUUAAUGGAAGGAGCGCGGAUAAUAAAGUGGGUAAACAUGAGGAUCACCCAUGUAAACCGCAGGUAGGUCGCCGAAAUAUAU [AstrosEXyARgB#8] | 39
15 | UGUAUGUGAUCUGAUACCAGUCCAACUGGUAAAACCUGAGGAACACCCAGGUAAAAUUGGGACCCUUGGCAGCAGAUCGCAUACU | 246
16 | CUAUAGAUAAGAAGGAGCGUCGAAAAUGGGUAAACAUGAGGAUCACCCAUGUAAAGGGAACGACAGGUAGGUCGCUUAUUUAUAG [AstromonsSSArgB#6] | 217
17 | UCAGUGCAAGGAAGGAGCGGGUACAUGAGGAUCACCCAUGUGCAAGUGGUGAGUGUUCGUGCCCAGGUAGGUCGCCUAGCCUGGU [XArg-B19] | 192
18 | UUCGCUGAGGGAAGGAGCGUGAAGACAUGAGGAUCACCCAUGUAGAGGCGCCGAAGGCGUUCGCAGGUAGGUCGCCCUCAGUGAG [#1 Same State - Arginine B Attempt #23 (HarryS)] | 16.4
19 | GAUAUGAUAAGAAGGAGCGUCGAAAAUGGGUAAACAUGAGGAUCACCCAUGUAAAGGGAACGACAGGUAGGUCGCUUAUUAUAUC [AstromonsSSArgB#19] | 160
20 | CGGCCCUCACCUGAGGAACACCCAGGUGAUACCAGCCUGGAAACAGGCCCUUGGCAGCACCAGGUCAUCAAAGAUGACCAAGCCG [TheoAX 24 #SwitchBubble #AlternativeMS2] | 20.1
21 | UGUAUGGACUGAAGGAGCGGUAGAUAACUUGAGGAUCACCCAGGUAAUAAGGCGAAAGCCUACCAGGUAGGUCGCAGUCCAUACU | 144

same assay, conditions: Eterna round: R107; input ligand: theophylline 20 uM

Row | Sequence | apparent KD of MS2 coat protein [nM]
22 | ACUAGUUGUGCAGAUACCAGACAUGAGGAUCACCCAUGUUUGGGAUGUUCGCAUCUUCCUGUCCCUUGGCAGCUGUACAUCUAGA [Omei Theo B Exc v4] | 145
23 | AUGGUUGUCGCGGCCGCCACUGUCGGCCGCCACUAAACAUGAGGAUCACCCAUGUAGGACCGGGACAGGACCGGGUGAUAACCAC [TryBS - #DoubleAptamer 3] | 33.9
24 | AGUCUUGAACGAAGGAGCGACGUACAUGAGGAUCACCCAUGUGUGGAGCGAAAGCUCCAACGUCAGGUAGGUCGCGUUCGAGACA [Omei Arginine B SS A v2] | 18
25 | UAGCAUAGUACGGCCGCCACUCCUGGUUCCCGGCCGUGUGUAAGACAUGAGGAUCACCCAUGUAGGAGGACCGGGUAUCGCUUGC [theeternabot_sameState_MS2_Trp_B_22] | 20.2
26 | AGCGACAUGCGUGAUACCAGCUACAUGAGGAUCACCCAUGUACGUAGGAAACUACUGUGUAGCCCUUGGCAGCAUAGUGCAUGUC [Exclusion - Theophylline B (Freestyle 21)] | 20
27 | AUCGUACCUGAUGAUACCAGCAUGUGAUCGUAACAUGAGGAUCACCCAUGUAAUCAGUGAUGCCCUUGGCAGCAUGAUCGGUACA [Same State - Theophylline B (Freestyle 14)] | 127
28 | UCGCUCUGGGUGAAUUCCGGAGAUGUGGAAGGAGCGGACGAAAGUCCAGGUAGGUCGCCAUCGGACAUGAGGAUCACCCAUGUAC [Same State - Arginine A (Freestyle 22)] | 99.8
29 | UUGGAUAUGCGAAGGAGCGGGAAAUAUAUAUAUAUAAUCCUAACAUGAGGAUCACCCAUGUCCCAGGUAGGUCGCGCAUAUUUGG [12.H] | 69.3
30 | UUACAUGAGGAUCACCCAUGUCAUACAGAAGGAGCGUCACAUAAGACAGGUAGGUCGCUGUUAUAUCAUACUAUUAUAUCCUCUA [JR_Nu_ExcArginiA_Sub028] | 53.5
31 | UCGUGUAUAUCGGAUACCAGUGAAAUCGAUACAUGAGGAUCACCCAUGUGAGAGGAUGUACACCCUUGGCAGCUGUAUAUAUCUA | 28.5
32 | ACAAGAGGUGGAAGGAGCGGGAGACAUGAGGAUCACCCAUGUGAAGUUUCGAGAGGAUCAUCCCAGGUAGGUCGCCAUGUCGAAA [ojjomullin] | 84.1
33 | CUUGGUAGAUCCUAGCUGCCAAGAGGUGAUACCAGCAUCGAAAGAUGCCCUUGGCAGCACCAACAUGAGGAUCACCCAUGUAAUA [(MT)''-(M)'-(T')-(Theo)-(Ms2)_Design1/22_4] | 178
34 | GAUUAAACAUGAGGAUCACCCAUGUAUAUACGAGGACCGGUACGGCCGCCACUCGUAAACGAGUAUCCUCGAAUAAACAUGAUAA [AK 2.1 SS Trypt (A)] | 113
35 | AACAUGAGGGCGGCCGCCACUCCAUGAACAUGAGGAUCACCCAUGUUGAGGAUCACCCAUGUUGUGAGGACCGGGCCACAUGAGG [Exclusion Tryptophan B 3] | 66.1
36 | GCGAUGGAGCGAAGGAGCGGCUGUGACUACAUGAGGAUCACCCAUGUACGAUCGUAAGGUAGCCAGGUAGGUCGCGCUCCAUCGC [SSAB NP+V+V2 #17] | 41.8
37 | AGCCCUGUGCUAGAUACCAGCUACAUGAGGAUCACCCAUGUGCGUCAGAAAUGACUGUGUAGCCCUUGGCAGCUAAAUGCAUGUA [Exclusion - Theophylline B (Freestyle 7)] | 16.5
38 | UGGUGUAGGGUAAAUAGGCUGAGUACAGAAGGAGCGCGAAUAAACGCAGGUAGGUCGCUGGACACAUGAGGAUCACCCAUGUUGA [Same State Arginine A GF 29] | 31.9
39 | CGAGUAAGAACAAUCGAAUAACGGUUUUCGCGAGGACCGGUACGGCCGCCACUCGUGUGAAAUAACACAUGAGGAUCACCCAUGU [3'end-1] | 26.8
40 | AAGUGGCACGGAAGGAGCGAGUUUACCUAGAUAACAUGAGGAUCACCCAUGUAUAAUGGGACUCAGGUAGGUCGCCGUUGUCACU [#29 Same State - Arginine B] | 51

— the supplement of paper PMC9170038
